Source: patent US20140294898A1 (published 2014)
Positions of bridges follow the written chain, without caps; N, C: chain ends. Non-standard residues stand in square brackets, D forms with d. Phe(4-tBu) = CC(C)(C)c1ccc(C[C@H](N)C(=O)O)cc1; Phe(4-Br) = N[C@@H](Cc1ccc(Br)cc1)C(=O)O; Phe(4-Cl) = N[C@@H](Cc1ccc(Cl)cc1)C(=O)O; Phe(4-F) = N[C@@H](Cc1ccc(F)cc1)C(=O)O; 3Pal = N[C@@H](Cc1cccnc1)C(=O)O; 4Pal = N[C@@H](Cc1ccncc1)C(=O)O; 3Thi = N[C@@H](Cc1ccsc1)C(=O)O; NMeNle = CCCC[C@H](NC)C(=O)O; dNle = CCCC[C@@H](N)C(=O)O; NMeA = CN[C@@H](C)C(=O)O; Sar = CNCC(=O)O

molecular target: T1, human PD-L1 (human, UniProt Q9NZQ7 19-239, limits assumed); experiment: cell binding assay, inhibition of Hu PD-L1/PD-1 binding
T1 construct: also called Hu PD-L1; hPD-L1
T1 sequence (Q9NZQ7 19-239 limits assumed): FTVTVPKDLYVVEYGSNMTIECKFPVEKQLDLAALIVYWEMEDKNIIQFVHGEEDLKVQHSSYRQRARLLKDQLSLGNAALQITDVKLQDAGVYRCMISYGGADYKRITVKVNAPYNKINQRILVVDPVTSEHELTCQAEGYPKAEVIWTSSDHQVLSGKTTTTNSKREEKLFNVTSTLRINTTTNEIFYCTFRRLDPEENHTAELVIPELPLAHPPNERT

IC50 [nM]	Binder
283	{CH2CO}-[4Pal][NMeA]NPHL[Sar]WSW[NMeNle][NMeNle]RCG-NH2 (thioether N-14; SMILES CCCC[C@H]1C(=O)N(C)[C@@H](CCCC)C(=O)N[C@@H](CCCNC(=N)N)C(=O)N[C@H](C(=O)NCC(N)=O)CSCC(=O)N[C@@H](Cc2ccncc2)C(=O)N(C)[C@@H](C)C(=O)N[C@@H](CC(N)=O)C(=O)N2CCC[C@H]2C(=O)N[C@@H](Cc2c[nH]cn2)C(=O)N[C@@H](CC(C)C)C(=O)N(C)CC(=O)N[C@@H](Cc2c[nH]c3ccccc23)C(=O)N[C@@H](CO)C(=O)N[C@@H](Cc2c[nH]c3ccccc23)C(=O)N1C, macrocyclic peptide, Formula I series; also called Compound 39) [Compound No. 39]
2520	{CH2CO}-[Phe(4-tBu)][NMeA]NPHL[Sar]WSW[NMeNle][NMeNle]RCG-NH2 (thioether N-14; SMILES CCCC[C@H]1C(=O)N(C)[C@@H](CCCC)C(=O)N[C@@H](CCCNC(=N)N)C(=O)N[C@H](C(=O)NCC(N)=O)CSCC(=O)N[C@@H](Cc2ccc(C(C)(C)C)cc2)C(=O)N(C)[C@@H](C)C(=O)N[C@@H](CC(N)=O)C(=O)N2CCC[C@H]2C(=O)N[C@@H](Cc2c[nH]cn2)C(=O)N[C@@H](CC(C)C)C(=O)N(C)CC(=O)N[C@@H](Cc2c[nH]c3ccccc23)C(=O)N[C@@H](CO)C(=O)N[C@@H](Cc2c[nH]c3ccccc23)C(=O)N1C, macrocyclic peptide, Formula I series; also called Compound 37) [Compound No. 37]
25	{CH2CO}-[Phe(4-F)][NMeA]NPHL[Sar]WSW[NMeNle][NMeNle]RCG-NH2 (thioether N-14; SMILES CCCC[C@H]1C(=O)N(C)[C@@H](CCCC)C(=O)N[C@@H](CCCNC(=N)N)C(=O)N[C@H](C(=O)NCC(N)=O)CSCC(=O)N[C@@H](Cc2ccc(F)cc2)C(=O)N(C)[C@@H](C)C(=O)N[C@@H](CC(N)=O)C(=O)N2CCC[C@H]2C(=O)N[C@@H](Cc2c[nH]cn2)C(=O)N[C@@H](CC(C)C)C(=O)N(C)CC(=O)N[C@@H](Cc2c[nH]c3ccccc23)C(=O)N[C@@H](CO)C(=O)N[C@@H](Cc2c[nH]c3ccccc23)C(=O)N1C, macrocyclic peptide, Formula I series; also called Compound 32) [Compound No. 32]
368	{CH2CO}-[3Pal][NMeA]NPHL[Sar]WSW[NMeNle][NMeNle]RCG-NH2 (thioether N-14; SMILES CCCC[C@H]1C(=O)N(C)[C@@H](CCCC)C(=O)N[C@@H](CCCNC(=N)N)C(=O)N[C@H](C(=O)NCC(N)=O)CSCC(=O)N[C@@H](Cc2cccnc2)C(=O)N(C)[C@@H](C)C(=O)N[C@@H](CC(N)=O)C(=O)N2CCC[C@H]2C(=O)N[C@@H](Cc2c[nH]cn2)C(=O)N[C@@H](CC(C)C)C(=O)N(C)CC(=O)N[C@@H](Cc2c[nH]c3ccccc23)C(=O)N[C@@H](CO)C(=O)N[C@@H](Cc2c[nH]c3ccccc23)C(=O)N1C, macrocyclic peptide, Formula I series; also called Compound 38) [Compound No. 38]
37	{CH2CO}-[Phe(4-Br)][NMeA]NPHL[Sar]WSW[NMeNle][NMeNle]RCG-NH2 (thioether N-14; SMILES CCCC[C@H]1C(=O)N(C)[C@@H](CCCC)C(=O)N[C@@H](CCCNC(=N)N)C(=O)N[C@H](C(=O)NCC(N)=O)CSCC(=O)N[C@@H](Cc2ccc(Br)cc2)C(=O)N(C)[C@@H](C)C(=O)N[C@@H](CC(N)=O)C(=O)N2CCC[C@H]2C(=O)N[C@@H](Cc2c[nH]cn2)C(=O)N[C@@H](CC(C)C)C(=O)N(C)CC(=O)N[C@@H](Cc2c[nH]c3ccccc23)C(=O)N[C@@H](CO)C(=O)N[C@@H](Cc2c[nH]c3ccccc23)C(=O)N1C, macrocyclic peptide, Formula I series; also called Compound 34) [Compound No. 34]
7	{CH2CO}-[Phe(4-Cl)][NMeA]NPHL[Sar]WSW[NMeNle][NMeNle]RCG-NH2 (thioether N-14; SMILES CCCC[C@H]1C(=O)N(C)[C@@H](CCCC)C(=O)N[C@@H](CCCNC(=N)N)C(=O)N[C@H](C(=O)NCC(N)=O)CSCC(=O)N[C@@H](Cc2ccc(Cl)cc2)C(=O)N(C)[C@@H](C)C(=O)N[C@@H](CC(N)=O)C(=O)N2CCC[C@H]2C(=O)N[C@@H](Cc2c[nH]cn2)C(=O)N[C@@H](CC(C)C)C(=O)N(C)CC(=O)N[C@@H](Cc2c[nH]c3ccccc23)C(=O)N[C@@H](CO)C(=O)N[C@@H](Cc2c[nH]c3ccccc23)C(=O)N1C, macrocyclic peptide, Formula I series; also called Compound 33) [Compound No. 33]
108	FANPHLXWSWXXRCG (ClAc on N-terminus cyclized as thioether with Cys14; mAla (N-methyl-Ala) at 2; Dab (2,4-diaminobutyric acid, written X) at 7; mNle (N-methyl-norleucine, written X) at 11 and 12; C-terminal NH2, macrocyclic peptide, Formula I series; also called Compound 52) [Compound No. 52]
20	{CH2CO}-[3Thi][NMeA]NPHL[Sar]WSW[NMeNle][NMeNle]RCG-NH2 (thioether N-14; SMILES CCCC[C@H]1C(=O)N(C)[C@@H](CCCC)C(=O)N[C@@H](CCCNC(=N)N)C(=O)N[C@H](C(=O)NCC(N)=O)CSCC(=O)N[C@@H](Cc2ccsc2)C(=O)N(C)[C@@H](C)C(=O)N[C@@H](CC(N)=O)C(=O)N2CCC[C@H]2C(=O)N[C@@H](Cc2c[nH]cn2)C(=O)N[C@@H](CC(C)C)C(=O)N(C)CC(=O)N[C@@H](Cc2c[nH]c3ccccc23)C(=O)N[C@@H](CO)C(=O)N[C@@H](Cc2c[nH]c3ccccc23)C(=O)N1C, macrocyclic peptide, Formula I series; also called Compound 40) [Compound No. 40]
351	FANPHLGWSWFXRCG (HELM PEPTIDE1{[O=C(C[*:3])[*:2]].F.[meA].N.P.H.L.[Sar].W.S.W.F.[CCCC[C@@H](C(=O)[*:2])N(C)[*:1]].R.C.G.[am]}$PEPTIDE1,PEPTIDE1,1:R3-15:R3$$$V2.0; SMILES CCCC[C@H]1C(=O)N[C@@H](CCCNC(=N)N)C(=O)N[C@H](C(=O)NCC(N)=O)CSCC(=O)N[C@@H](Cc2ccccc2)C(=O)N(C)[C@@H](C)C(=O)N[C@@H](CC(N)=O)C(=O)N2CCC[C@H]2C(=O)N[C@@H](Cc2c[nH]cn2)C(=O)N[C@@H](CC(C)C)C(=O)N(C)CC(=O)N[C@@H](Cc2c[nH]c3ccccc23)C(=O)N[C@@H](CO)C(=O)N[C@@H](Cc2c[nH]c3ccccc23)C(=O)N[C@@H](Cc2ccccc2)C(=O)N1C, macrocyclic peptide, Formula I series; Phe at 11 is not N-methylated; also called Compound 69) [Compound No. 69]

molecular target: T2, hPDL1(19-239)-TVMV-His (human, UniProt Q9NZQ7 19-239); experiment: HTRF competition, PD-1-Ig (20 nM) binding to human PD-L1-His (10 nM)
T2 construct: The construct name says 19-239, the running text says amino acids 18-239; Expressed in HEK293T cells; also called PD-L1-His; PD-L1-TVMV-His
Method: All binding studies were performed in an HTRF assay buffer consisting of dPBS supplemented with 0.1% (w/v) bovine serum albumin and 0.05% (v/v) Tween-20. […] PD-L1 fusion proteins from either human, cynomologous macaques, or mouse were used. HTRF detection was achieved using europium crypate-labeled anti-Ig monoclonal antibody (1 nM final) and allophycocyanin (APC) labeled anti-His monoclonal antibody (20 nM final). Antibodies were diluted in HTRF detection buffer and 5 μl was dispensed on top of binding reaction. The reaction was allowed to equilibrate for 30 minutes and signal (665 nm/620 nm ratio) was obtained using an EnVision fluorometer. […]
HTRF Experiments were performed essentially as outlined supra. Variant macrocyclic peptides were created as outlined herein.

T2 sequence (Q9NZQ7 other isoform, or with tags, fused parts or gaps limits assumed): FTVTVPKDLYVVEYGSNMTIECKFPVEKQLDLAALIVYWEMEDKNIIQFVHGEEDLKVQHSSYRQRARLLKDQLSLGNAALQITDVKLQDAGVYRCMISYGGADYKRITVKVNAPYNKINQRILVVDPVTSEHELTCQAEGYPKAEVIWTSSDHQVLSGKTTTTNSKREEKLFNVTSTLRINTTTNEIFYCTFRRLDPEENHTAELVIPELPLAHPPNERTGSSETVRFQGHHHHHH

Binder	IC50 [nM]
{CH2CO}-F[NMeA]NPHL[Sar]WSW[dNle][NMeNle]RCG-NH2 (thioether N-14; SMILES CCCC[C@H]1NC(=O)[C@H](Cc2c[nH]c3ccccc23)NC(=O)[C@H](CO)NC(=O)[C@H](Cc2c[nH]c3ccccc23)NC(=O)CN(C)C(=O)[C@H](CC(C)C)NC(=O)[C@H](Cc2c[nH]cn2)NC(=O)[C@@H]2CCCN2C(=O)[C@H](CC(N)=O)NC(=O)[C@H](C)N(C)C(=O)[C@H](Cc2ccccc2)NC(=O)CSC[C@@H](C(=O)NCC(N)=O)NC(=O)[C@H](CCCNC(=N)N)NC(=O)[C@H](CCCC)N(C)C1=O, macrocyclic peptide cyclized via the ClAc moiety with the downstream cysteine) [Compound No. 70]	8680
{CH2CO}-F[NMeA]NPHD[Sar]WSW[NMeNle][NMeNle]RCG-NH2 (thioether N-14; SMILES CCCC[C@H]1C(=O)N(C)[C@@H](CCCC)C(=O)N[C@@H](CCCNC(=N)N)C(=O)N[C@H](C(=O)NCC(N)=O)CSCC(=O)N[C@@H](Cc2ccccc2)C(=O)N(C)[C@@H](C)C(=O)N[C@@H](CC(N)=O)C(=O)N2CCC[C@H]2C(=O)N[C@@H](Cc2c[nH]cn2)C(=O)N[C@@H](CC(=O)O)C(=O)N(C)CC(=O)N[C@@H](Cc2c[nH]c3ccccc23)C(=O)N[C@@H](CO)C(=O)N[C@@H](Cc2c[nH]c3ccccc23)C(=O)N1C, macrocyclic peptide cyclized via the ClAc moiety with the downstream cysteine) [Compound No. 51]	23

Next, values leading:

IC50 [nM]	Binder
34	{CH2CO}-F[NMeA]NPHLHWSW[NMeNle][NMeNle]RCG-NH2 (thioether N-14; SMILES CCCC[C@H]1C(=O)N(C)[C@@H](CCCC)C(=O)N[C@@H](CCCNC(=N)N)C(=O)N[C@H](C(=O)NCC(N)=O)CSCC(=O)N[C@@H](Cc2ccccc2)C(=O)N(C)[C@@H](C)C(=O)N[C@@H](CC(N)=O)C(=O)N2CCC[C@H]2C(=O)N[C@@H](Cc2c[nH]cn2)C(=O)N[C@@H](CC(C)C)C(=O)N[C@@H](Cc2c[nH]cn2)C(=O)N[C@@H](Cc2c[nH]c3ccccc23)C(=O)N[C@@H](CO)C(=O)N[C@@H](Cc2c[nH]c3ccccc23)C(=O)N1C, macrocyclic peptide cyclized via the ClAc moiety with the downstream cysteine) [Compound No. 53]
4	{CH2CO}-F[NMeA]NPHLPWSW[NMeNle][NMeNle]RCG-NH2 (thioether N-14; SMILES CCCC[C@H]1C(=O)N(C)[C@@H](CCCC)C(=O)N[C@@H](CCCNC(=N)N)C(=O)N[C@H](C(=O)NCC(N)=O)CSCC(=O)N[C@@H](Cc2ccccc2)C(=O)N(C)[C@@H](C)C(=O)N[C@@H](CC(N)=O)C(=O)N2CCC[C@H]2C(=O)N[C@@H](Cc2c[nH]cn2)C(=O)N[C@@H](CC(C)C)C(=O)N2CCC[C@H]2C(=O)N[C@@H](Cc2c[nH]c3ccccc23)C(=O)N[C@@H](CO)C(=O)N[C@@H](Cc2c[nH]c3ccccc23)C(=O)N1C, macrocyclic peptide cyclized via the ClAc moiety with the downstream cysteine) [Compound No. 55]
26	{CH2CO}-F[NMeA]NPHLRWSW[NMeNle][NMeNle]RCG-NH2 (thioether N-14; SMILES CCCC[C@H]1C(=O)N(C)[C@@H](CCCC)C(=O)N[C@@H](CCCNC(=N)N)C(=O)N[C@H](C(=O)NCC(N)=O)CSCC(=O)N[C@@H](Cc2ccccc2)C(=O)N(C)[C@@H](C)C(=O)N[C@@H](CC(N)=O)C(=O)N2CCC[C@H]2C(=O)N[C@@H](Cc2c[nH]cn2)C(=O)N[C@@H](CC(C)C)C(=O)N[C@@H](CCCNC(=N)N)C(=O)N[C@@H](Cc2c[nH]c3ccccc23)C(=O)N[C@@H](CO)C(=O)N[C@@H](Cc2c[nH]c3ccccc23)C(=O)N1C, macrocyclic peptide cyclized via the ClAc moiety with the downstream cysteine) [Compound No. 54]
